From paper PMC5384396

Legend:
[1] = target: cynomolgus monkey (cyno) GITR (cynomolgus monkey)
[2] = target: cynomolgus monkey (cyno) GITR (cynomolgus monkey); remark: listed apart in the source

MEDI1873 (Fc fusion) showed a Jurkat NFκB reporter gene assay with cyno GITR-transfected cells, EC50 [1] of 0.422 nM and a Kd [2] of 107 nM.
